Test: yeast display, Sf9 membrane polyspecificity reagent, FACS + sequencing; frameworks hold sequencing errors
In short: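 Galactose-induced (36–48 hours) yeast carrying a synthetic nanobody display library were exposed to 10% biotinylated, detergent-solubilized Sf9 membrane reagent at 4 °C for 1 hour. FACS followed streptavidin microbead enrichment, using low and high (top ~1%) gates for expression (anti-HA) and reagent binding (streptavidin). Colony PCR, MiSeq 2 × 250 sequencing and CDR-length filtering followed. Labels for polyreactivity reflect the gate of origin.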

| Sequence | polyreactivity (PSR sort gate) |
| --- | --- |
| QVQLVESGGGLVQAGGSLRLSCAASGRTFVWNAIGWYRQAPGKERELVDAITSGGSTNYADSVKGRFTISRDNAKNTVYLQMNSLKPEDTAVYYCAADWHYSPRMDYWGQGTLVTVSS | low polyreactivity |
| QVQIVESGGGLVQAGGSLSLSCAASGRTFAGNAMGWYRQAPGKEMELVASISSSGGRTYYADSVKGRFTISRDNAKNTVYLQMISLKPEDTAVYYCAARGGYVSTWTRFSKYNYWGQGTQVTVSS | high polyreactivity |
| QVQLVESGGGLVHAGGSLRLSCSPSVSIFNTYAMGWYRQAPGKERELVAGITKTGSPTYYADSVKGRFTISRDIAKNTFYLQMNSLKPEDTAVYYCNARIWPRSYRYDYWGQGTQVTVSS | high polyreactivity |
| QVQLVESGGGLVQAGGSLRLSCAASGRIFQGYAMGWYRQAPGKERELVASIRTGGTTNYADSVKGRFTISRDNAKNTVYLQMTRLKPEDNAVYYCNSGYYSYYGRYYYWGQGTQVTVSS | high polyreactivity |
| QVQLVESGGGLVLAGGSLRLSCAASGSIFKNYAMGWYGQAPGKVRELVAAITRGTYYADSVKGRFTISRDNAKNTVYLQMNSLKPEDTAVYYCNREYWGRGYYRVRGEYDYWGQGTQVTVSS | low polyreactivity |
| QVQLVESGGGLVQAGGSLRLSCAASGFIFLWNAMAWYRQAPGKELDLVAAINRGTSTNYADSVKGRFTISRDNAKNTVYLQMNSLKPEDTAVYYCAVSVLPWQMYSESYAEYDYWGQGTQVTVSS | low polyreactivity |
| QVQLVESGGGLVQAGGSLRLSCAASGFIFSYNAMGWYRQAPGKERELVAAISSSGGTTYYADSVKGRFTISRDKAKNTVYLQMNSLKPEDTAVYYCNKTTHSRTFRYDYWAQGTQVTVSS | low polyreactivity |
| QVQLVESGGGLVQAGGSLRLSCAASGRTFIRNVMGWYRQAPGKERELVAGITGGGNTYYADSVKGRFTISRDNAKNTVYLQMNSLKPEDTAVYECAVRYPSYGLSYVRYGYWGQVTQVTVSS | high polyreactivity |
| QVQLVESGGGLVQAGGSLRFSCAASGLIFGSYTMGWSRQAPGKERELVAGISRGGGITYYADSVKGRFTISRDNAKNTVYLQMNSLKPEDTAVYYCAAGYFSYSPYGSYKFGYWGQGTQVTVSS | high polyreactivity |
| QVQLVESGGGLVQAGGSLRLSCAASGRTFVYNAMGWYRQAPGKERELVAAITRNGGSTYYADSVKGRFTISRDNAKNTVYLQMNSLKPEDTAVYYCNRDVRYVGRSGFDYWGQGTQVTVSS | high polyreactivity |
| QVQLVESGGGLVQAGGSLRLSCAASGIIFRYYAMGWYRQAPGKERELVAAISVSGGSTYDADSVKGRFTISRDNAKNTVYLQMNSLKPEDTAVYYCAARTRDFGYWGQGTQVTVSS | high polyreactivity |
| QVQLVESGGGLVQAGGSLRLSCAASGSIFWYYAMGWYRQAPGKERELVAAISRSGGSTYYADSVKGRFTISRDNAKNTVYLQMNSLKPEDTAVYYCAAGYSSLRRFGVYYWGQGTQVTVSS | high polyreactivity |
| QVQLVESGGGLVQAGGSLRLSCAASGSIFNAYVMGWYRQAPGKERELVAAISRSGGRTYYADSVKGRFTISRDNAKNTVYLQMNSLKPEDTAVYYCAADYGGPYGQLDYWGQGTQVTVSS | high polyreactivity |
| QVQLVDSCGGLVQAGGSLRLSFAASGRIYGPYAMGWYRQAPGKERELVAAISFSGSGTYYADSVKGRFTISRDNAKNTVYLQMNSLKPEDTAVYYCAADRWAHTHRLGYWGQGTQVTVSS | low polyreactivity |
| QVQLVESGGGLVQAGGSLRLSCAASGYTLRIYAMGWYRQAPGKERELVAAISRSGGRTFYADSVKGRFTISRDNAKNTVYLQMISLTPEDTAVFYCAAVSAYYYRRTYEYWGQGTQVTVSS | high polyreactivity |
| QVQLVESGGGLGQAGGSLRLSCAASGFIFGPYAMGWYRQARGKETELVAAISSSGGSTSYADSVKGRFTISRDNAKNTVYLQMNSLKPEDTAVYYCAARGRYRFYSNNYDYWGQGTQVTVSS | high polyreactivity |
| QVQLVESGRGLVQAGGSLRLSCAASGRTVTNNVLGWYRQAPGKEREFVASISSGGGSTYYADSVKGRFTISRDNANNTVYVQMNSLKPEDTAVYYCAAGYWWRYALYGYWGQGTQVTVSS | low polyreactivity |
